Columns and labels:
LZTR1-FLAG = target: T1, LZTR1-FLAG (human, UniProt Q8N653 1-840); assay: IP/MS, LZTR1 wild type-FLAG, U87
T1 construct: Expressed in HEK 293T, HeLa or U87 cells; used as cell lysate; also called LZTR1 wild type-FLAG; LZTR1 WT; not shown: FLAG tag at the C-terminus
T1 sequence (looked up): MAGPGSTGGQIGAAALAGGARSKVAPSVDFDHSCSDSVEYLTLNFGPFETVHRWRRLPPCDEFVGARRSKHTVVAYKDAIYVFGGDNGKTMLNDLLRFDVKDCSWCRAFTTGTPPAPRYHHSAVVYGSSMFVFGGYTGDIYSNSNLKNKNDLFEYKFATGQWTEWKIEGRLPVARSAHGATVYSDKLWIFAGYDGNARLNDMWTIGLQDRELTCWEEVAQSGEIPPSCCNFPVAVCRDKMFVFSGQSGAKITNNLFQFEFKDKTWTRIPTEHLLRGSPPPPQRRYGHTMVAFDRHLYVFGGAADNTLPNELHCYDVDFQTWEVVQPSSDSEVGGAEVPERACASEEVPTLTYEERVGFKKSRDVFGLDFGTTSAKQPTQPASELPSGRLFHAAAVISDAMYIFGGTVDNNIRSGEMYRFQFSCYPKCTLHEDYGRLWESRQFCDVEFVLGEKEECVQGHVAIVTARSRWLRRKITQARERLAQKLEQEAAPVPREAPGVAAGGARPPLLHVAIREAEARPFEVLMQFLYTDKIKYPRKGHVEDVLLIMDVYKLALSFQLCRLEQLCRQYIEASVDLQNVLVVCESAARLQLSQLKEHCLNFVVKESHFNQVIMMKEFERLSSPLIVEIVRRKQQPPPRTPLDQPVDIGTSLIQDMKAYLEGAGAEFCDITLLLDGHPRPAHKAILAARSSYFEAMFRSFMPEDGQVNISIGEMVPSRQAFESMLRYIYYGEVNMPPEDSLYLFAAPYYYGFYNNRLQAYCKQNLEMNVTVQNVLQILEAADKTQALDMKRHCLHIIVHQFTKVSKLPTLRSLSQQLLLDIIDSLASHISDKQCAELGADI
Procedure, shortened: (§1)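 Gel slices were reduced with 5 mM DTT, alkylated with 11 mM IAA and digested overnight at 37° C. with trypsin. Peptides were analysed on an Orbitrap Fusion Tribrid by LC-MS/MS.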

LZTR1 R810W-FLAG = target: T2, LZTR1 R810W-FLAG (human, UniProt Q8N653 1-840); assay: IP/MS, LZTR1 R810W-FLAG, U87
T2 construct: Stably expressed in U87 cells by lentivirus; also called LZTR1-FLAG-R810W; LZTR1 RW; not shown: FLAG tag
T2 sequence (looked up): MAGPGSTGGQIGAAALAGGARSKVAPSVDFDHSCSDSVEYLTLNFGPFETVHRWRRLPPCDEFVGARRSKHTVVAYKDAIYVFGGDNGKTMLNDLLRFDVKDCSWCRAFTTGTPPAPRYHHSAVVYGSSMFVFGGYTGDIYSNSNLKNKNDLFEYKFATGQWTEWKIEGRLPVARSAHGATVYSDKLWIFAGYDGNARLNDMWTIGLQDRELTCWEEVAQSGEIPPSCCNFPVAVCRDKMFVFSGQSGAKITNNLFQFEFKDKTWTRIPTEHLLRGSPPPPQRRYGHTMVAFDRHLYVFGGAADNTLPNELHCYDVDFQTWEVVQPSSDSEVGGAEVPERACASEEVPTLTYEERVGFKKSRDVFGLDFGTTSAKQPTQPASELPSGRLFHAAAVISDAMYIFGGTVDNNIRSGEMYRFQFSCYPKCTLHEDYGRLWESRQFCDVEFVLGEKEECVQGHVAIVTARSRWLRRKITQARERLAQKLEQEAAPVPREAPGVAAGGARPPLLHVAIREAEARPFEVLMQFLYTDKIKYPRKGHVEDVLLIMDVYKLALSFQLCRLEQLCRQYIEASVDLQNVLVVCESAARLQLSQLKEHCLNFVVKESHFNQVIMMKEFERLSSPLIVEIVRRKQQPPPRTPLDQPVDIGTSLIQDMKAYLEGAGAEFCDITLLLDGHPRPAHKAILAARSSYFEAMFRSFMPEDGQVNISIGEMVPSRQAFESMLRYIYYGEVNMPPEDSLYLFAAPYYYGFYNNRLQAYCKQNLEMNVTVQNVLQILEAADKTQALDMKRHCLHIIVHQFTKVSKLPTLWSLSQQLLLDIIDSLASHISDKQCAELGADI
Procedure, shortened: as §1

Binder | binding result (LZTR1-FLAG) | binding result (LZTR1 R810W-FLAG)
TBK1 (other, human, UniProt Q9UHD2 1-729, looked up) MQSTSNHLWLLSDILGQGATANVFRGRHKKTGDLFAIKVFNNISFLRPVDVQMREFEVLKKLNHKNIVKLFAIEEETTTRHKVLIMEFCPCGSLYTVLEEPSNAYGLPESEFLIVLRDVVGGMNHLRENGIVHRDIKPGNIMRVIGEDGQSVYKLTDFGAARELEDDEQFVSLYGTEEYLHPDMYERAVLRKDHQKKYGATVDLWSIGVTFYHAATGSLPFRPFEGPRRNKEVMYKIITGKPSGAISGVQKAENGPIDWSGDMPVSCSLSRGLQVLLTPVLANILEADQEKCWGFDQFFAETSDILHRMVIHVFSLQQMTAHKIYIHSYNTATIFHELVYKQTKIISSNQELIYEGRRLVLEPGRLAQHFPKTTEENPIFVVSREPLNTIGLIYEKISLPKVHPRYDLDGDASMAKAITGVVCYACRIASTLLLYQELMRKGIRWLIELIKDDYNETVHKKTEVVITLDFCIRNIEKTVKVYEKLMKINLEAAELGEISDIHTKLLRLSSSQGTIETSLQDIDSRLSPGGSLADAWAHQEGTHPKDRNVEKLQVLLNCMTEIYYQFKKDKAERRLAYNEEQIHKFDKQKLYYHATKAMTHFTDECVKKYEAFLNKSEEWIRKMLHLRKQLLSLTNQCFDIEEEVSKYQEYTNELQETLPQKMFTASSGIKHTMTPIYPSSNTLVEMTLGMKKLKEEMEGVVKELAENNHILERFGSLTMDGGLRNVDCL | binds | binds
TELO2 (other, human, UniProt Q9Y4R8 1-837, looked up) MEPAPSEVRLAVREAIHALSSSEDGGHIFCTLESLKRYLGEMEPPALPREKEEFASAHFSPVLRCLASRLSPAWLELLPHGRLEELWASFFLEGPADQAFLVLMETIEGAAGPSFRLMKMARLLARFLREGRLAVLMEAQCRQQTQPGFILLRETLLGKVVALPDHLGNRLQQENLAEFFPQNYFRLLGEEVVRVLQAVVDSLQGGLDSSVSFVSQVLGKACVHGRQQEILGVLVPRLAALTQGSYLHQRVCWRLVEQVPDRAMEAVLTGLVEAALGPEVLSRLLGNLVVKNKKAQFVMTQKLLFLQSRLTTPMLQSLLGHLAMDSQRRPLLLQVLKELLETWGSSSAIRHTPLPQQRHVSKAVLICLAQLGEPELRDSRDELLASMMAGVKCRLDSSLPPVRRLGMIVAEVVSARIHPEGPPLKFQYEEDELSLELLALASPQPAGDGASEAGTSLVPATAEPPAETPAEIVDGGVPQAQLAGSDSDLDSDDEFVPYDMSGDRELKSSKAPAYVRDCVEALTTSEDIERWEAALRALEGLVYRSPTATREVSVELAKVLLHLEEKTCVVGFAGLRQRALVAVTVTDPAPVADYLTSQFYALNYSLRQRMDILDVLTLAAQELSRPGCLGRTPQPGSPSPNTPCLPEAAVSQPGSAVASDWRVVVEERIRSKTQRLSKGGPRQGPAGSPSRFNSVAGHFFFPLLQRFDRPLVTFDLLGEDQLVLGRLAHTLGALMCLAVNTTVAVAMGKALLEFVWALRFHIDAYVRQGLLSAVSSVLLSLPAARLLEDLMDELLEARSWLADVAEKDPDEDCRTLALRALLLLQRLKNRLLPPASP | binds | binds
TRAPPC12 (other, human, UniProt Q8WVT3 1-735, looked up) MEDAGGGEETPAPEAPHPPQLAPPEEQGLLFQEETIDLGGDEFGSEENETASEGSSPLADKLNEHMMESVLISDSPNSEGDAGDLGRVRDEAEPGGEGDPGPEPAGTPSPSGEADGDCAPEDAAPSSGGAPRQDAAREVPGSEAARPEQEPPVAEPVPVCTIFSQRAPPASGDGFEPQMVKSPSFGGASEASARTPPQVVQPSPSLSTFFGDTAASHSLASDFFDSFTTSAFISVSNPGAGSPAPASPPPLAVPGTEGRPEPVAMRGPQAAAPPASPEPFAHIQAVFAGSDDPFATALSMSEMDRRNDAWLPGEATRGVLRAVATQQRGAVFVDKENLTMPGLRFDNIQGDAVKDLMLRFLGEKAAAKRQVLNADSVEQSFVGLKQLISCRNWRAAVDLCGRLLTAHGQGYGKSGLLTSHTTDSLQLWFVRLALLVKLGLFQNAEMEFEPFGNLDQPDLYYEYYPHVYPGRRGSMVPFSMRILHAELQQYLGNPQESLDRLHKVKTVCSKILANLEQGLAEDGGMSSVTQEGRQASIRLWRSRLGRVMYSMANCLLLMKDYVLAVEAYHSVIKYYPEQEPQLLSGIGRISLQIGDIKTAEKYFQDVEKVTQKLDGLQGKIMVLMNSAFLHLGQNNFAEAHRFFTEILRMDPRNAVANNNAAVCLLYLGKLKDSLRQLEAMVQQDPRHYLHESVLFNLTTMYELESSRSMQKKQALLEAVAGKEGDSFNTQCLKLA | binds | binds
TRIM47 (other, human, UniProt Q96LD4 1-638, looked up) MDGSGPFSCPICLEPLREPVTLPCGHNFCLACLGALWPHRGASGAGGPGGAARCPLCQEPFPDGLQLRKNHTLSELLQLRQGSGPGSGPGPAPALAPEPSAPSALPSVPEPSAPCAPEPWPAGEEPVRCDACPEGAALPAALSCLSCLASFCPAHLGPHERSPALRGHRLVPPLRRLEESLCPRHLRPLERYCRAERVCLCEACAAQEHRGHELVPLEQERALQEAEQSKVLSAVEDRMDELGAGIAQSRRTVALIKSAAVAERERVSRLFADAAAALQGFQTQVLGFIEEGEAAMLGRSQGDLRRQEEQRSRLSRARQNLSQVPEADSVSFLQELLALRLALEDGCGPGPGPPRELSFTKSSQAVRAVRDMLAVACVNQWEQLRGPGGNEDGPQKLDSEADAEPQDLESTNLLESEAPRDYFLKFAYIVDLDSDTADKFLQLFGTKGVKRVLCPINYPLSPTRFTHCEQVLGEGALDRGTYYWEVEIIEGWVSMGVMAEDFSPQEPYDRGRLGRNAHSCCLQWNGRSFSVWFHGLEAPLPHPFSPTVGVCLEYADRALAFYAVRDGKMSLLRRLKASRPRRGGIPASPIDPFQSRLDSHFAGLFTHRLKPAFFLESVDAHLQIGPLKKSCISVLKRR | binds | binds
UBXN6 (other, human, UniProt Q9BZV1 1-441, looked up) MKKFFQEFKADIKFKSAGPGQKLKESVGEKAHKEKPNQPAPRPPRQGPTNEAQMAAAAALARLEQKQSRAWGPTSQDTIRNQVRKELQAEATVSGSPEAPGTNVVSEPREEGSAHLAVPGVYFTCPLTGATLRKDQRDACIKEAILLHFSTDPVAASIMKIYTFNKDQDRVKLGVDTIAKYLDNIHLHPEEEKYRKIKLQNKVFQERINCLEGTHEFFEAIGFQKVLLPAQDQEDPEEFYVLSETTLAQPQSLERHKEQLLAAEPVRAKLDRQRRVFQPSPLASQFELPGDFFNLTAEEIKREQRLRSEAVERLSVLRTKAMREKEEQRGLRKYNYTLLRVRLPDGCLLQGTFYARERLGAVYGFVREALQSDWLPFELLASGGQKLSEDENLALNECGLVPSALLTFSWDMAVLEDIKAAGAEPDSILKPELLSAIEKLL | binds | binds
UFL1 (other, human, UniProt O94874 2-794, looked up) ADAWEEIRRLAADFQRAQFAEATQRLSERNCIEIVNKLIAQKQLEVVHTLDGKEYITPAQISKEMRDELHVRGGRVNIVDLQQVINVDLIHIENRIGDIIKSEKHVQLVLGQLIDENYLDRLAEEVNDKLQESGQVTISELCKTYDLPGNFLTQALTQRLGRIISGHIDLDNRGVIFTEAFVARHKARIRGLFSAITRPTAVNSLISKYGFQEQLLYSVLEELVNSGRLRGTVVGGRQDKAVFVPDIYSRTQSTWVDSFFRQNGYLEFDALSRLGIPDAVSYIKKRYKTTQLLFLKAACVGQGLVDQVEASVEEAISSGTWVDIAPLLPTSLSVEDAAILLQQVMRAFSKQASTVVFSDTVVVSEKFINDCTELFRELMHQKAEKEMKNNPVHLITEEDLKQISTLESVSTSKKDKKDERRRKATEGSGSMRGGGGGNAREYKIKKVKKKGRKDDDSDDESQSSHTGKKKPEISFMFQDEIEDFLRKHIQDAPEEFISELAEYLIKPLNKTYLEVVRSVFMSSTTSASGTGRKRTIKDLQEEVSNLYNNIRLFEKGMKFFADDTQAALTKHLLKSVCTDITNLIFNFLASDLMMAVDDPAAITSEIRKKILSKLSEETKVALTKLHNSLNEKSIEDFISCLDSAAEACDIMVKRGDKKRERQILFQHRQALAEQLKVTEDPALILHLTSVLLFQFSTHSMLHAPGRCVPQIIAFLNSKIPEDQHALLVKYQGLVVKQLVSQSKKTGQGDYPLNNELDKEQEDVASTTRKELQELSSSIKDLVLKSRKSSVTEE | binds | binds
